This is an account of results in patent US20240383964A1, “De Novo Designed alpha(5) beta(1) Integrin selective minibinders” (UNIVERSITY OF WASHINGTON, priority 2023, published 2024).

One test addresses integrin a8b1 (Homo sapiens, UniProt P05556+P53708). The test can be described thus: BLI cross specificity, integrin a8b1. The conditions noted are these: 500 nM integrin (FIG. 2B legend: 500 nM or 1000 nM), integrin assay buffer. The class given is binding.
In a further test the target is integrin avb1 (Homo sapiens, UniProt P05556+P06756). The test can be described thus: BLI cross specificity, integrin avb1. The class given is binding. The conditions noted are these: 500 nM integrin (FIG. 2B legend: 500 nM or 1000 nM), integrin assay buffer.
The next test addresses integrin avb6 (Homo sapiens, UniProt P06756+P18564). Nature of the test: BLI cross specificity, integrin avb6. The class given is binding. Conditions: 500 nM integrin (FIG. 2B legend: 500 nM or 1000 nM), integrin assay buffer.
The next test has as its target integrin avb8 (Homo sapiens, UniProt P06756+P26012). Nature of the test: BLI cross specificity, integrin avb8. The class given is binding. Conditions: 500 nM integrin (FIG. 2B legend: 500 nM or 1000 nM), integrin assay buffer.
Another test deals with integrin avb3 (Homo sapiens, UniProt P05106+P06756). Nature of the test: BLI cross specificity, integrin avb3. The class given is binding. The conditions noted are these: 500 nM integrin (FIG. 2B legend: 500 nM or 1000 nM), integrin assay buffer.
The next test has as its system HUVECs. The test can be described thus: Tube formation assay. The class given is cell-based, human. The procedure:
FIG. 2. (A) BLI binding affinity traces for minibinder or ^8RGD^10/GGG mutant against α5β1 in indicated buffers. Minibinder affinity to integrin α5β1 is dependent on metal ion presence and RGD motif. All affinity data was collected by Octet™ R8 and binding affinity was estimated by the Octet™ ForteBio software package. (B) Minibinder has no detectable affinity in presence of 500 nM or 1000 nM integrin αvβ1, αvβ3, αvβ6, αvβ8 and α8β1. (C) Cell surface titration of minibinder 4584_V5.3 and 00179_v4.1 against K562 cells wild type. […] Integrin α5 subunit and β1 subunit were stained with integrin α5 and active integrin β1 subunit specific antibody, respectively. (E) Quantification of (D). Quantification was counted as a percentage of mb-sheets that colocalized with staining of a5 and b1, a5 only, b1 only, or none; 30-35 sheets were counted in each biological repeat. […] Vascular stability was analyzed at 12-h timepoints. […] (G) Quantification of (F). The number of nodes, meshes, and tubes from images in (F) were quantified using an angiogenesis analyzer plug-in in ImageJ. Statistical significance of each were analyzed using One-way Anova Bonferroni's multiple comparison test. […] The wound area of T0 and T12 time points were quantified using imageJ and level of cell migration were calculated using this equation (AreaT0-T12)/AreaT0, all samples were normalized to PBS as fold change. […]

integrin a8b1, sequence (P53708 39-906 limits assumed): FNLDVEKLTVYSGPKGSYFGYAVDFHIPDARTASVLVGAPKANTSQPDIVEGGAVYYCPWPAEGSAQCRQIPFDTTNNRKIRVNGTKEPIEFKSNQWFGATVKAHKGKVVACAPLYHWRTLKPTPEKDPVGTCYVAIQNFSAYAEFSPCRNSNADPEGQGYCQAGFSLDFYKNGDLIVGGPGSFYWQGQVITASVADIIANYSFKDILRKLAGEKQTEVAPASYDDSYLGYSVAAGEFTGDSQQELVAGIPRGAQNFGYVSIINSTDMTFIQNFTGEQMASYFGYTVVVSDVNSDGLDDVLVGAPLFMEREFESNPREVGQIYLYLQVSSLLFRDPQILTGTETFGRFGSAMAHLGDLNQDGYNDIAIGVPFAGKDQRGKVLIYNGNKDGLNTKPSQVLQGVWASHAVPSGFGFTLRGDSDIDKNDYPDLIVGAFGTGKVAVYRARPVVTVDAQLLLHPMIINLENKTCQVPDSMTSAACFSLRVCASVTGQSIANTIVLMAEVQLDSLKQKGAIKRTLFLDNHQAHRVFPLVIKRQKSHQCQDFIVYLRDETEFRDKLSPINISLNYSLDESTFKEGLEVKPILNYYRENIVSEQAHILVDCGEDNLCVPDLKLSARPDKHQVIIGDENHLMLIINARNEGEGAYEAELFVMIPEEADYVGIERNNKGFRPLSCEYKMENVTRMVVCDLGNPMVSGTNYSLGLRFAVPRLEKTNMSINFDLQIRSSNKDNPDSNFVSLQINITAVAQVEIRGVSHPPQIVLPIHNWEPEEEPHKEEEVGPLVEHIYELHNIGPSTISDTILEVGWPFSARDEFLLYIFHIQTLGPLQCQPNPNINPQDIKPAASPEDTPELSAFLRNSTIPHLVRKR
integrin a8b1, sequence (P53708 907-1011 partner limits assumed): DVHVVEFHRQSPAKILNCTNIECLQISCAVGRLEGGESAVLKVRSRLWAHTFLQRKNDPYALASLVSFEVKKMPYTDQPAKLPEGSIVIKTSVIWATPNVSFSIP
integrin a8b1, sequence (P05556 21-728 limits assumed): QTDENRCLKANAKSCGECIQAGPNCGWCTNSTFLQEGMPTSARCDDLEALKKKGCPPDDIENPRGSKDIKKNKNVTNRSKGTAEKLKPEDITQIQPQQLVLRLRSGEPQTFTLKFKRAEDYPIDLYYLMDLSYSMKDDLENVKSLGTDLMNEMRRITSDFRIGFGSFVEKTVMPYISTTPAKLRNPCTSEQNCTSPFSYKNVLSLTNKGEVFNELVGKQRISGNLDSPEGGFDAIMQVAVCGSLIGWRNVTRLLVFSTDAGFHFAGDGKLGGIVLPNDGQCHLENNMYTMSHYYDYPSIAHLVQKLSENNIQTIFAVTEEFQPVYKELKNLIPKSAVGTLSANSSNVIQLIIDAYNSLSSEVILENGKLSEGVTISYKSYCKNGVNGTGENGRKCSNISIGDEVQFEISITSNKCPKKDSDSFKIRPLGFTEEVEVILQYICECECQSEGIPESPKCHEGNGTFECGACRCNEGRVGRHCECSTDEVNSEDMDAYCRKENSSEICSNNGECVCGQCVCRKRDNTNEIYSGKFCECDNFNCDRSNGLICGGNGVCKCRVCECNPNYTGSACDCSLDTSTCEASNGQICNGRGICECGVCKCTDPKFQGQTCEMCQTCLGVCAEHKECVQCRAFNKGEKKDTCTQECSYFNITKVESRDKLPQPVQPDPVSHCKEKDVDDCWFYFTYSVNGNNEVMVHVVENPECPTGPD
integrin avb6, sequence (P06756 31-889 limits assumed): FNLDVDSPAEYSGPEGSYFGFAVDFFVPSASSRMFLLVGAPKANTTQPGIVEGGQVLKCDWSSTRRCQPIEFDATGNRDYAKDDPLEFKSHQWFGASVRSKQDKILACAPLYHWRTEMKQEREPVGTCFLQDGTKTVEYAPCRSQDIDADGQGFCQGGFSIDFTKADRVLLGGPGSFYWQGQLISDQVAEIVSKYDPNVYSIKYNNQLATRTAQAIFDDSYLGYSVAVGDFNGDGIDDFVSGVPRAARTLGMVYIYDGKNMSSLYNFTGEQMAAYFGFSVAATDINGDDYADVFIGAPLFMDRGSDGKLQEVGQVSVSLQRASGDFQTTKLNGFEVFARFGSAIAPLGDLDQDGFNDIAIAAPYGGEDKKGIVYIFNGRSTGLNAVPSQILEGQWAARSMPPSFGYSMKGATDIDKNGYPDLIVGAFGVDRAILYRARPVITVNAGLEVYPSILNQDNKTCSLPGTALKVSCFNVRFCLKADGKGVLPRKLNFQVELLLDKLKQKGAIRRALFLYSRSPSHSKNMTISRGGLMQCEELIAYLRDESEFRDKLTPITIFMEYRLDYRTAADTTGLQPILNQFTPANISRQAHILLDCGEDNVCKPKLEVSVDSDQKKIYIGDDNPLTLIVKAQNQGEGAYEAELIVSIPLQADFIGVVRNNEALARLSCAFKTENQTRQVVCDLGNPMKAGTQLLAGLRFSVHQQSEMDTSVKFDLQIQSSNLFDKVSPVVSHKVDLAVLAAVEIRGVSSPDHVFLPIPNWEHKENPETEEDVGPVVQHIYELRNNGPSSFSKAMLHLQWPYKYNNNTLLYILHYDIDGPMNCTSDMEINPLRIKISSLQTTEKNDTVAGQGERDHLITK
integrin avb6, sequence (P06756 891-992 partner limits assumed): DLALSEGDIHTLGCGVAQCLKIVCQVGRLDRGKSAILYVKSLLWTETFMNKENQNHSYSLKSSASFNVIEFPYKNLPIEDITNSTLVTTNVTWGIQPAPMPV
integrin avb6, sequence (P18564 22-709 limits assumed): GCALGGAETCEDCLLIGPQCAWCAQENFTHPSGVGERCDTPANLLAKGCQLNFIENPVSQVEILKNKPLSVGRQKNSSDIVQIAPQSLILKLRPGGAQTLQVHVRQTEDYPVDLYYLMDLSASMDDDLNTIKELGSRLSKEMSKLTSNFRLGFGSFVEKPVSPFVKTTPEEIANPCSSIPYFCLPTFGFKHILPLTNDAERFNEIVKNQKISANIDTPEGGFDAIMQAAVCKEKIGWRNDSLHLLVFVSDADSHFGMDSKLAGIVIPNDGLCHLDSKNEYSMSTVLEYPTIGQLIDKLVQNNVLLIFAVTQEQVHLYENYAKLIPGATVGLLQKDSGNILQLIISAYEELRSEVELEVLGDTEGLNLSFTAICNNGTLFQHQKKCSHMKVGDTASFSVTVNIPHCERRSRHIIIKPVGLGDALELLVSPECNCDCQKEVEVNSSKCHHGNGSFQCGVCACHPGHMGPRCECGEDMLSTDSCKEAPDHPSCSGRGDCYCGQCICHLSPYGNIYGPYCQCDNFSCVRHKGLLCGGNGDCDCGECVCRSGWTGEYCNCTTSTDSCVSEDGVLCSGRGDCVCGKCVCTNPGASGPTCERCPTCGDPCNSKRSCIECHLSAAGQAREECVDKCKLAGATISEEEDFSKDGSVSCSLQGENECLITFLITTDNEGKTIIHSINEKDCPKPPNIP
integrin avb3, sequence (P06756 31-889 limits assumed): as the sequence (P06756 31-889 limits assumed) above
integrin avb3, sequence (P06756 891-992 partner limits assumed): as the sequence (P06756 891-992 partner limits assumed) above
integrin avb3, sequence (P05106 27-718 limits assumed): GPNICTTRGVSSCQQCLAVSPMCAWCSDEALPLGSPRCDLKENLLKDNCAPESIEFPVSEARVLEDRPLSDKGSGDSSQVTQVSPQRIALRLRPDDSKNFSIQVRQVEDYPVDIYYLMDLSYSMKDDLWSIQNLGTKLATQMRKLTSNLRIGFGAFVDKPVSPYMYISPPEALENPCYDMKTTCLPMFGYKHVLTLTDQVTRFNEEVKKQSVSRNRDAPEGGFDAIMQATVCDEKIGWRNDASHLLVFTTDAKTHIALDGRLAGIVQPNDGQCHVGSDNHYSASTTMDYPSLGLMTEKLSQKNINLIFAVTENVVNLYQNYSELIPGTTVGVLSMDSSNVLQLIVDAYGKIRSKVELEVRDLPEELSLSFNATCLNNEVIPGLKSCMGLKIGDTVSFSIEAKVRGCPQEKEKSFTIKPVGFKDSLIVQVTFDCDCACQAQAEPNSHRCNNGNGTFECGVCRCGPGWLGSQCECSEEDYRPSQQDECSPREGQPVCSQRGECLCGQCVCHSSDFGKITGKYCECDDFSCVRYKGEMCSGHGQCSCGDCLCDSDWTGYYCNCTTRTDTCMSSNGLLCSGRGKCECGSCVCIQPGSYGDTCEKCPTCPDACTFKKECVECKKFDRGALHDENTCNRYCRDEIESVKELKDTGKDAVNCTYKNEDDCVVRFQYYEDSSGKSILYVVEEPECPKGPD

B1: 00179_v4.1: highest affinity α5β1 minibinder, sequence SELIIHGRGDFPSSELERLRERFERLGIKVRVDHKVLTLIGISEEEAERLARELRKRGIWVEIRK (protein)
chain: SELIIHGRGDFPSSELERLRERFERLGIKVRVDHKVLTLIGISEEEAERLARELRKRGIWVEIRK
For the molecule B1, the “binding to integrin a8b1” value with integrin a8b1 was “No detectable binding”. For the same molecule, the “binding to integrin avb1” value with integrin avb1 was “No detectable binding”. In the test with integrin avb6, the “binding to integrin avb6” value was “No detectable binding”. In the test with integrin avb8, the “binding to integrin avb8” value is on record as “No detectable binding”. Besides, the “binding to integrin avb3” value with integrin avb3 is reported as “No detectable binding”. In the test on HUVECs (HUVEC cells, 0, 0.1, 1, 10 and 100 nM, 12-h timepoint), the vascular stability entry is “decrease in vascular stability”. The tube formation entry in the test on HUVECs (HUVECs, 10 nM and 100 nM, 12 hours, compared to PBS control) is recorded as “significantly attenuated”.
